Read-outs that look alike come from different tables or passages of the source.

The target of experiment [1] is full-length synuclein. In words: ITC. For orientation: Isothermal titration calorimetry measures the heat released or taken up as one component is titrated into another.
The target of experiment [2] is full-length synuclein. In words: ITC. This is another data set of the same source.

B1: Asyn-338.1 (antibody, V domains shown)
VH: QVQLVESGGDIVQPGGSLKLSCAASGFTFKSYWMHWVRQVPGKGLFWVSRINTFGNKTSYADSVRGRFSISRDNTKSILYLQMNSLKAEDTAVYYCARSTLGSFDYWGQGTLVTVSS
VL: AIQLTQSPDSLAVSLGERATINCKASQSLLYSSNNRNYLAWYQQKPGQPPKALIYWASTRESGVPDRFSGSGSGTDFTLTISSLQAEDVAVYYCHQYYTTHSFGQGTKLEIK
On to B1, for which the Kd – broadly, a measure of binding affinity in units of concentration – with full-length synuclein [1] was 300 nM.

B2: Asyn-336.1 (antibody, V domains shown)
VH: EVQLVQSGGTLVQPGGSLRLSCAASGFTFSTYAISWVRQAPGRGLEWVSFITGDGSRILYADSVRGRFSISRDNSKNTLYLQMNSLRTDDTAMYYCVFNHYWGQGTLVTVSS
VL: B1 VL
B2: in the experiment with full-length synuclein [1], the Kd came to 1400 nM.

B3: Asyn-323.1 (antibody, V domains shown)
VH: EVQLLESGGGLVQPGGSLKLSCAASGFTFSASAMHWVRQTSDKRLEWVGRIRNKANNYATAYAASVKGRFTISRDDSKNTAYLQMNSLKTEDTAVYYCTRHLSLGGNSVDYWGQGTPVTVSS
VL: DVVMTQSPLSSPVTLGQPASISCRASQSPVHSDGNTYLSWLQQRPGQPPRLLIYTISNRFPGVPDRFSGSGAGTDFTLRISRVEAEDVGVYYCMQGTQFPYTFGQGTKLEIK
In the case of B3, in the experiment with full-length synuclein [2], the Kd amounted to 2800 nM.

Values taken from US20210347868A1 (published 2021).
